Data reported in US20200087681A1.

Columns and labels:
CD19 = CD19 (UniProt P15391); experiment: cell-based or functional assay
[1] = biological target: human serum immunoglobulin (IgG) (human); experiment: flow cytometry of cFcR-transduced human T cells incubated with human serum IgG, co-stained for CD16 and IgG

Chain of UniProt P15391 (P15391 20-556 limits assumed): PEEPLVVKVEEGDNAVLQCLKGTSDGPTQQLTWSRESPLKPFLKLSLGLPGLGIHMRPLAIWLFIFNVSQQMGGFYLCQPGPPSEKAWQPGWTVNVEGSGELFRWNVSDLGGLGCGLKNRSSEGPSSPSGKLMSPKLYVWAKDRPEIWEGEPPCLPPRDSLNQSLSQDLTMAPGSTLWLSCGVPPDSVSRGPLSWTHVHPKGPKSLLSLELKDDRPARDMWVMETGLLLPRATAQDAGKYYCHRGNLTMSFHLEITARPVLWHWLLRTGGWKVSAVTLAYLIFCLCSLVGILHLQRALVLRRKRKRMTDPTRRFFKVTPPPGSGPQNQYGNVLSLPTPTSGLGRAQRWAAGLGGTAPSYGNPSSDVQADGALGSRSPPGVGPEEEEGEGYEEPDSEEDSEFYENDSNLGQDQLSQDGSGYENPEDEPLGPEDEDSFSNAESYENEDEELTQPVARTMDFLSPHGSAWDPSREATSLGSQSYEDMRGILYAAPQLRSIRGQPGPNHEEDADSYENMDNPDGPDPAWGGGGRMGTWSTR

Substance | degranulation assay, CD107a upregulation on TCR+ CAR19+ T cells after 4 hr with CD19+ Daudi (CD19) [%] | degranulation assay, CD107a upregulation on TCR- CAR19+ T cells after 4 hr with CD19+ Daudi (CD19) [%] | percent of cells with CD16 and IgG co-staining [1] [%]
CD3z-41BB-CD8-CAR19scFv (4G7) chimeric antigen receptor (CAR19) (from UniProt P01732 138-206; Q07011 214-255; P20963 52-164) | 53 | 57 | –
chimeric FcR (cFcR) (from UniProt P08637 17-208; P01732 138-206; Q07011 214-255; P20963 52-164) (receptor) | – | – | 7.5
